According to the nanobody polyreactivity screen of Harvey et al. (2022):

Assay: yeast display, Sf9 membrane polyspecificity reagent, FACS + sequencing; frameworks hold sequencing errors
How it was run: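 Galactose induction of a Saccharomyces cerevisiae BJ5465 synthetic nanobody display library ran 36–48 hours. The cells were then stained for 1 hour at 4 °C with 10% biotinylated, detergent-solubilized Sf9 membrane reagent, pulled down on streptavidin microbeads and FACS-sorted into low and high (top ~1%) gates on expression and reagent-binding fluorescence. Labels for polyreactivity follow the gate of origin.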

| Sequence | polyreactivity (PSR sort gate) |
| --- | --- |
| QVQLVESGGGLVQAGGSLRLICAASGSTFKTYAMGWYRQAPGQEREFVASISGSGGSTSYADSVKGRFTISRDNAKNTVYLQMNSLKPEDTAVYYCAARLQKPTIGKGVYYWGQGTLVTVSS | high polyreactivity |
| QVQLVESGGGLVQAGGSLRLICAASGSTFLTNVMGWYRQAPGKERELVAAISRGGGRTYYADSVKGRFTISRDNAKNTVYLQMNSLKPEDTAVYYCNAVDASHAGPVGGAFRYDYWGQGTQVTVSS | high polyreactivity |
| QVQLVESGGGLVQAGGSLRLICAASGSTFPPNAMGWYRQAPGKERELVAAISKRGGSTTYSDSVKGRFTISRDYAKNTVYLQMNSLIPEDTAVYYCAARRSGRSHYEKMDYWGQGTQVSVSS | low polyreactivity |
| QVQLVESGGGLVQAGGSLRLICAASGSTFPRNAMGWYRQAPGKERELVATITSSGGGTYYADSVKGRFTISRDNAMNTVYLQMNSLKPEDTAVYYCNADGPAGDAFDYWGQGTQVTVSS | low polyreactivity |
| QVQLVESGGGLVQAGGSLRLICAASGSTFSSNAMAWFRQAPGKERELVAAIDRGGSTNYADSVKGRFTISRDNAKNTVYFQMNCLKAEDTAVYYCKAERVTYDTGRAVLPGGYWGQGTQVTVSS | low polyreactivity |
| QVQLVESGGGLVQAGGSLRLICAASGSTFVVNAMGWYRQAPGKERELVAAIRNSGSTTYADSVKGRFTISRDNAKNTVYLQMNSLKPEDTAVYYCATDFSATVTAVQINPYDYWGQGTQVTVSS | low polyreactivity |
| QVQLVESGGGLVQAGGSLRLICAASGSTFYDNTMGWYRQAPGKERELVAAISSGGGTYYADSVKGRFTISRDNAKNTVYLQMNSLKPEDTSVYYCNADQTAYGKPGRAYGFDYWGQGTQVTVSS | low polyreactivity |
| QVQLVESGGGLVQAGGSLRLICAASGSTLPGYVKGWYRQAPGKERELVAAITKSGGSTYYADSVKGRFTISRDNAKNTVYLQMNSLKPEDTAVYYCAVGVKAQIAGDYWGQGTQVTVSS | low polyreactivity |
| QVQLVESGGGLVQAGGSLRLICAASGSTQSPYAMGWYRQAPGKERDFVAAISTSGVSTYYADSVKGRFTISRDNAKNTVDLQMNSLKPVDTAVYYCATRYYIYGSTLKLYDYWGQGTQVTVSS | high polyreactivity |
| QVQLVESGGGLVQAGGSLRLICAASGSTQVYYAMGWYRQAPGKETELVASINHSGARTRYADSVKGRFTISRDNAKNTVYLQMNSLKPEVTAVYYCAAVARSTTYRYNYWGQGTQVTVSS | high polyreactivity |
| QVQLVESGGGLVQAGGSLRLICAASGSTRRYVMGWYRQAPGKERELVAVISRGGSTYYADSVKGRFTISRDNAKNTVYLQMNSLKPEDTAVYYCNVQPVIPRGGDYWGQGTQVTVSS | high polyreactivity |
| QVQLVESGGGLVQAGGSLRLICAASGSTSPYYTRGWYRQAPGKERELVASINESGGSTYYADSVKARFTISRDNAKNTVYLQMHTLKPEDTAGYNCNAEYTTPSYPVYSIDYYWFDYWGQGTQVTVSS | low polyreactivity |
| QVQLVESGGGLVQAGGSLRLICAASGYIFRDYAMGWYRQAPGKERELVATISSGGSTSYADSVKGRFTISRDNAKNTVYLQMNSLKPEDTAVYYCAADVANTSAEYYYWGQGTQVTVSS | low polyreactivity |
| QVQLVESGGGLVQAGGSLRLICAASGYIFRPNAMGWYRQAPGKERELVASISSGGSTYYADSVKGRFTISRDNAKNTVYLQMNSLKPEDTAVYYCNARHYPWFAAYGSYAYEYWGQGTQVTVSS | low polyreactivity |
| QVQLVESGGGLVQAGGSLRLICAASGYTFPRYTMGWYRQAPGKERELVAAITSSGSTNYADSVKGRFTISRDNAKNTVYLQMNCLKPEDTAVYYCATLYRDWWSGYLEVDYWGQGTQVTVSS | high polyreactivity |
| QVQLVESGGGLVQAGGSLRLICAASGYTFTGYAMGWYRQAPGKEREFVAGITWRTGRTYYADSVNGRFTISRDNAKNTVYLQMNSLKPEDTAVYYCAAVPWKRYDYYTPFARGYWGQGTQVTVSS | low polyreactivity |

| Sequence | polyreactivity (PSR sort gate) |
| --- | --- |
| QVQLVESGGGLVQAGGSLRLICAASGYTLATYTMRWYIQAPGKERELVAAISFGGSTYYADSVKGRFTISRDNAKNTVYLQMNSLKPEDTAVYYCAVYGDSYWGAYYYSDGYWGQGTQVTVSS | low polyreactivity |
| QVQLVESGGGLVQAGGSLRLICAASRFTYYRNVMGWYRQAPGKERELVAPISRRGDRTYADSVKGRFTISRDNAKNTVYLQMNSLKPEDTAVYYFAPTPYSYWTRYYYWGQGTQVTVTS | high polyreactivity |
| QVQLVESGGGLVQAGGSLRLICAATGFTFLFYDMGWYRQAPGKERALVAASTSDGSTYYADSVKGRFTISRDNAKNTVYLQMNSLKPEDTAVYYCNADEPDEAYLYQSDYWGQGTQVTVSS | low polyreactivity |
| QVQLVESGGGLVQAGGSLRLICADSGRIFNRYAMGWYRQAPGKEREFVAGITWNGGSTYYADSVKGRFTISRDNSKNTVNLQMNSLKPEDTAVYYCAATHYYYGTSRYDYWGQGTQVTVSS | high polyreactivity |
| QVQLVESGGGLVQAGGSLRLICADSGSTFSPNGMGWYTQAHGKERELVAAITSVGSTYYAESVEGRFTISRDNELNTVYFQMNSLQPVDTAVFYCAKGQRDSEEYDYWGQGTQVTVSS | low polyreactivity |
| QVQLVESGGGLVQAGGSLRLICDASGLTFIRNAMGCYRQATGKERELVAAITRRGGSTYYADSVKGRFTISRDNAKNTVYLQMHSLQPEDTPVDYCARRLYPSASYDYDYWGQGTQETVSS | high polyreactivity |
| QVQLVESGGGLVQAGGSLRLICYASGSIFWVYAMGWYRQAPGKEWELVADIRYRDGSTHYADSVKGRFTISRDNAKNTVYLQMNSLKPEDTAVYYCAADDLPSTGYDYWGPGTQVTVSS | low polyreactivity |
| QVQLVESGGGLVQAGGSLRLIFAASGRTFVLNAMRWYRQAPGKEREFVAAISWGGVRTYYADSVKGRFTISRDNAKNTVYLQMNSLKPEDTAVYYCATCGSRYRRYDYWGQGTQVTVSS | high polyreactivity |
| QVQLVESGGGLVQAGGSLRLISAASGNIVYFNAMGWYRQAPGKERELVAAISRAGSTYYADSVKGRFTISRDNAKNTVYLQMNSLKQEDTAVYYCAATTGRPDNYYYWGQGTQVTVSS | high polyreactivity |
| QVQLVESGGGLVQAGGSLRLNCAASGSIFDDYAMGWYRQAPGKERELVAAINIRTGSTYYADSEKGRFTISRDNAKNTVYLQMNSLKPEDTAVYYCNSVVRGFVRHLDYWGQGTQVTVSS | low polyreactivity |
| QVQLVESGGGLVQAGGSLRLNCAASGSIFDKNAMGWYRQAPGKERELVAAISRSGGSTYYADSVKGRFTISRDNAKNTVYLQMNSLKPEVTAVYYCNKYTNGRNFDYWGQGTQVTVSS | high polyreactivity |
| QVQLVESGGGLVQAGGSLRLNCAASGSIFLIYAMGWYRQATGKERELVAGINWSGSRTYNADSVKGRFTISRDNAKNTVYLQMNSLKPEDTAVYYCAARVRRPLYSAYDSWGQGTQVTVSS | low polyreactivity |
| QVQLVESGGGLVQAGGSLRLNCAASGSIFTGNAMGWYRQAPGKERELVASITTSTDSTYYADSVKGRFTISRDNAKNTVYLQMNRLKTEDTAVYYCAAEYAVAWKYGLYFYFHFDYWGQGTQVTVSS | low polyreactivity |
| QVQLVESGGGLVQAGGSLRLRCAASGFIFQINAMGWYRQAPGKEREFVAAISRSVGSTSYADSVKGRFTISRDNAKNTVYLQMNSLKPEDTAVYYCNAAQRKRKGPYDYWGQGTQVTVSS | high polyreactivity |
| QVQLVESGGGLVQAGGSLRLRCAASGFIYIRNAMGWYRQAPGKERELVAAITRSGGRTYYADSVKGRFTISRDNAKNTVYLQMNSLIPEDTAVYYCASDAEAAWGQGTQVTVSS | high polyreactivity |
